Biological target: T1, PCSK9 (Homo sapiens, UniProt Q8NBP7)
T1 construct: endogenous in cells; host or cells: human subjects, in vivo
Assay: 12 week dose-ranging study in combination with statins (Example 25)
Assay type: in vivo
Conditions: on statin, preliminary
Experimental: Randomization will be stratified by screening LDL-C level (<130 mg/dL [3.4 mmol/L] vs ≥130 mg/dL) and ezetimibe use at baseline (yes vs no). Randomization should occur within 5-10 days of the screening LDL-C evaluation used to determine eligibility. Study visits are every 2 weeks, irrespective whether the subject receives Q2W SC or Q4W treatment. […] The end-of-study visit and the last estimation of lipids is at week 12 for subjects on Q4W IP schedule and week 14 for subjects on Q2W IP schedule.
Males and females, ≥18 to ≤80 years of age, are eligible for this study. For enrollment,
subjects must be on a statin, with or without ezetimibe, with stable dose(s) for at least 4 weeks before LDL-C screening and not requiring uptitration. Fasting LDL-C at screening must be ≥85 mg/dL (2.2 mmol/L). Enrollment of subjects with screening fasting LDL-C between ≥85 mg/dL (2.2 mmol/L) and <100 mg/dL (2.6 mmol/L) will be limited to no more than approximately 20% of total planned enrollment. Fasting triglycerides must be ≤400 mg/dL (4.5 mmol/L) as determined by the central laboratory analysis at screening.

[1] = 70 mg Q2W SC, end of dosing interval
[2] = 105 mg Q2W SC, end of dosing interval
[3] = 280 mg (Q2W as printed) SC, end of dosing interval
[4] = 350 mg (Q2W as printed) SC, end of dosing interval

T1 sequence (Q8NBP7 153-692): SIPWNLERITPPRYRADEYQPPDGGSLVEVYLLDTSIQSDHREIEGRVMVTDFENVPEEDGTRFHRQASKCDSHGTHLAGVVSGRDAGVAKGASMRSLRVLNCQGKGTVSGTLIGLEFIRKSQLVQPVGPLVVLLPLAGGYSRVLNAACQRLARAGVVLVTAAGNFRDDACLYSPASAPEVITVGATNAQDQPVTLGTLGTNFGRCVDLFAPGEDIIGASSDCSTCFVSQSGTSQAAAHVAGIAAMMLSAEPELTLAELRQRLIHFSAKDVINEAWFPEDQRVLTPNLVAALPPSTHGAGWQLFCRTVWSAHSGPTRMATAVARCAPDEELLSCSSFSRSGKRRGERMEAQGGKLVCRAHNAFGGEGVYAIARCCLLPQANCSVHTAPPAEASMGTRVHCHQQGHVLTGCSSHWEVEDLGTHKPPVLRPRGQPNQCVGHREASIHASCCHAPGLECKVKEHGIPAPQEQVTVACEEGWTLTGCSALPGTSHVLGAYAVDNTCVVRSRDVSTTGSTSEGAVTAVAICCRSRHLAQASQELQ

B1: 21B12: human anti-PCSK9 monoclonal antibody, light/heavy variable region SEQ ID NO 23/49 (antibody, listed as Homo sapiens, V domains shown)
VH: QVQLVQSGAEVKKPGASVKVSCKASGYTLTSYGISWVRQAPGQGLEWMGWVSFYNGNTNYAQKLQGRGTMTTDPSTSTAYMELRSLRSDDTAVYYCARGYGMDVWGQGTTVTVSS
VL: QSALTQPASVSGSPGQSITISCTGTSSDVGGYNSVSWYQQHPGKAPKLMIYEVSNRPSGVSNRFSGSKSGNTASLTISGLQAEDEADYYCNSYTSTSMVFGGGTKLTVL
For B1, the “LS mean percent increase from baseline in HDL-C” value (“LS mean percent increase” for short) [1] was 21.17%, the “LS mean percent reduction from baseline in LDL-C” value [1] was 39.22% and the “LS mean percent reduction from baseline in Lp(a)” value [1] was 21.17%. For the same molecule, the “LS mean percent reduction from baseline in VLDL-C” value [1] was 14.84%, the “LS mean percent reduction from baseline in non-HDL-C” value [1] was 36.20% and the “LS mean percent reduction from baseline in total cholesterol” value [1] was 26.33%. The “LS mean percent reduction from baseline in triglycerides” value [1] was 7.20%, the “LS mean percent increase” value [2] was 6.80% and the “LS mean percent reduction from baseline in LDL-C” value [2] was 56.38%. For the same molecule, the “LS mean percent reduction from baseline in Lp(a)” value [2] was 33.41%, the “LS mean percent reduction from baseline in VLDL-C” value [2] was 12.75% and the “LS mean percent reduction from baseline in non-HDL-C” value [2] was 51.20%. For the same molecule, the “LS mean percent reduction from baseline in total cholesterol” value [2] was 36.91%, the “LS mean percent reduction from baseline in triglycerides” value [2] was 5.65% and the “LS mean percent increase” value (140 mg Q2W SC) was 8.43%. For the same molecule, the “LS mean percent reduction from baseline in LDL-C” value (140 mg Q2W SC) was 68.76%, the “LS mean percent reduction from baseline in Lp(a)” value (140 mg Q2W SC) was 33.87% and the “LS mean percent reduction from baseline in VLDL-C” value (140 mg Q2W SC) was 45.14%. The “LS mean percent reduction from baseline in non-HDL-C” value (140 mg Q2W SC) was 64.61%, the “LS mean percent reduction from baseline in total cholesterol” value (140 mg Q2W SC) was 46.17% and the “LS mean percent reduction from baseline in triglycerides” value (140 mg Q2W SC) was 17.60%. The “LS mean percent increase” value [3] was 2.17%, the “LS mean percent reduction from baseline in Lp(a)” value [3] was 22.54% and the “LS mean percent reduction from baseline in VLDL-C” value [3] was 18.12%. For the same molecule, the “LS mean percent reduction from baseline in non-HDL-C” value [3] was 38.89%, the “LS mean percent reduction from baseline in total cholesterol” value [3] was 28.08% and the “LS mean percent reduction from baseline in triglycerides” value [3] was 6.75%. The “LS mean percent reduction from baseline in LDL-C” value (280 mg (Q4W) SC, end of dosing interval) was 42.62%, the “LS mean percent increase” value [4] was 6.92% and the “LS mean percent reduction from baseline in Lp(a)” value [4] was 29.43%. For the same molecule, the “LS mean percent reduction from baseline in VLDL-C” value [4] was 20.89%, the “LS mean percent reduction from baseline in non-HDL-C” value [4] was 50.83% and the “LS mean percent reduction from baseline in total cholesterol” value [4] was 36.04%. For the same molecule, the “LS mean percent reduction from baseline in triglycerides” value [4] was 9.17%, the “LS mean percent reduction from baseline in LDL-C” value (350 mg SC, end of dosing interval) was 56.84% and the “LS mean percent increase” value (420 mg (Q2W as printed) SC) was 7.42%. The “LS mean percent reduction from baseline in Lp(a)” value (420 mg (Q2W as printed) SC) was 23.29%, the “LS mean percent reduction from baseline in VLDL-C” value (420 mg (Q2W as printed) SC) was 28.66% and the “LS mean percent reduction from baseline in non-HDL-C” value (420 mg (Q2W as printed) SC) was 48.54%. The “LS mean percent reduction from baseline in total cholesterol” value (420 mg (Q2W as printed) SC) was 42.76%, the “LS mean percent reduction from baseline in triglycerides” value (420 mg (Q2W as printed) SC) was 11.13% and the “LS mean percent reduction from baseline in LDL-C” value (420 mg SC) was 52.19%.
